By Kd is commonly meant a measure of binding affinity in units of concentration.

The labels stand for the following.
B1: αFXI-13654p-IgG4 (S228P) (K-)/kappa (antibody, V domains shown)
VH: EVQLVESGGGLVKPGGSLRLSCAASGFTFSSYSMNWVRQAPGKGLEWVSSISSSSSYIYYADSVKGRFTISRDNAKNSLYLQMNSLRAEDTAVYYCARSYYDYDQGYGMDVWGQGTTVTVSS
VL: DIQMTQSPSSVSASVGDRVTITCRASQGISSWLAWYQQKPGKAPKLLIYAASSLQSGVPSRFSGSGSGTDFTLTISSLQPEDFATYYCQQVNSYPITFGGGTKVEIKR
notes: Human IgG4 S228P heavy chain lacking the C-terminal lysine; kappa light chain
B2: αFXI-13716-IgG4 (S228P) Q1E M103L (K-)/kappa (antibody, V domains shown)
VH: EVQLVQSGAEVKKPGASVKVSCKASGYTFTSYSMHWVRQAPGQGLEWMGIINPSGGSTSYAQKFQGRVTMTRDTSTSTVYMELSSLRSEDTAVYYCARGAYLLELYYYYGMDVWGQGTTVTVSS
VL: EIVMTQSPATLSVSPGERATLSCRASQSVSSNLAWYQQKPGQAPRLLIYGASTRATGIPARFSGSGSGTEFTLTISSLQSEDFAVYYCQQFNDWPLTFGGGTKVEIKR
notes: Human IgG4 S228P heavy chain with Q1E and M103L, lacking the C-terminal lysine; kappa light chain
B3: αFXI-13716p-IgG4 (S228P) (K-)/kappa (antibody, V domains shown)
VH: B2 VH with E1Q, L103M
VL: B2 VL
notes: Human IgG4 S228P heavy chain lacking the C-terminal lysine; kappa light chain; also called α13716p-IgG4 (S228P) (K-)/kappa

Changes are numbered by the printed parent chain. Names and notes keep the numbering of the source.

The target in one test is T1, human coagulation Factor XI (FXI) zymogen (human, UniProt P03951 19-625). The test can be described thus: cell-based or functional assay.
B1: the “FXIa Activation Inhibition (EC50, nM); autoactivation of FXI on dextran sulfate, Z-GPR-AFC cleavage” value (shortened to “FXIa Activation Inhibition (EC50, nM)”) was 10 nM.
B2: the “FXIa Activation Inhibition (EC50, nM)” value amounted to 11 nM.
For the molecule B3, the “FXIa Activation Inhibition (EC50, nM)” value came out at 4 nM.

In a further test the target is T2, cynomolgus monkey FXI zymogen (cynomolgus monkey, UniProt A0A2K5VVW4 19-624).
T2 construct: also called NHP FXI zymogen (cynomolgus)
The test can be described thus: SPR (ProteOn XPR36), antibody captured by anti-human IgG, FXI as analyte; mean ± SD, N=3.
Method: (§1) 1 M ethanolamine HCl is then injected across all six vertical flow channels to neutralize remaining reactive surface amines. The anti-FXI antibodies are then injected at 25 μL/minutes for 60 seconds, each into a distinct vertical flow channel coated with capture antibody (L2, L3, L4, L5, or L6), at a concentration of 5 μg/mL in 10 mM sodium acetate, pH 5.0, to achieve saturating capture levels of approximately 80 RU; vertical flow channel L1 is injected with 10 mM sodium acetate, pH 5.0 (buffer alone), as a reference control. After capture of anti-FXI antibodies, running buffer (1×HBS-N, 5 mM CaCl₂, 0.005% P20, pH 7.4) is injected across all horizontal flow channels (A1-A6) for 5 minutes and allowed to dissociate for 20 minutes at 25 μL/minutes to remove any non-specifically bound anti-FXI antibodies from the chip surface. To measure on-rate (kₐ) of human FXI to captured anti-FXI antibodies, a 6-point titration of human FXI zymogen (0, 0.25, 0.5, 1.0, 2.0, 4.0 nM diluted in running buffer) is subsequently injected horizontally across all six vertical flow channels for 8 minutes; the bound zymogen is then allowed to dissociate for 60 minutes in running buffer at 25 μL/min to measure off-rate (kd). Binding kinetics and affinity (KD) may be determined using instrument-specific software (Bio-Rad).
(§2) A GLC low-density sensor chip is washed across all vertical and horizontal flow channels with 0.5% sodium dodecyl-sulfate, 50 mM sodium hydroxide, and 100 mM hydrochloric acid for 60 seconds at 30 μL/second flow rate.
As for B1, binding was put at a Kd of 12.9 pM.
Same read-out and setting: the result for B2 reads 6.9 pM.
B3 yielded a Kd of 7.5 pM.

The next test deals with T1, human coagulation Factor XI (FXI) …. Described as above.
Method: as §1, §2
As for B1, the Kd was 26.5 pM.
The same measure, in the same setting: next, B2: 2.5 pM.
Consider B3, for which binding was put at a Kd of 3.5 pM.

A further test concerns the target T3, rhesus monkey FXI zymogen (rhesus monkey, UniProt F6PJ95 19-624).
T3 construct: also called NHP FXI zymogen (rhesus)
Described as above.
Method: as §1, §2
As for B1, the affinity, expressed as Kd, was 26.6 pM.
Still for that read-out and setting: the result for B2 reads 2 pM.
As for B3, the Kd is 3.1 pM.

The target in a further test is T2, cynomolgus monkey FXI zymogen. The test can be described thus: cell-based or functional assay.
Regarding B1, the “aPTT in cynomolgus monkey plasma: concentration that prolongs clotting time by 50% (1.5x)” value (shortened to “aPTT in cynomolgus monkey plasma … by 50% (1.5x)”) amounted to 21.6 nM.
In the case of B2, the “aPTT in cynomolgus monkey plasma … by 50% (1.5x)” value worked out at 21.1 nM.
For B3, the “aPTT in cynomolgus monkey plasma … by 50% (1.5x)” value was determined as 22.5 nM.

The target in another test is T1, human coagulation Factor XI (FXI) …. The test can be described thus: cell-based or functional assay. The source holds these as a separate data set.
B1: the “aPTT in human plasma: concentration that prolongs clotting time by 50% (1.5x)” value was found to be 16.8 nM.
Regarding B2, the “aPTT in human plasma: concentration that prolongs clotting time by 50% (1.5x)” value came to 20.9 nM.
Same read-out and setting: next, B3: 21.6 nM.

Another test has as its target T3, rhesus monkey FXI zymogen. The test can be described thus: cell-based or functional assay.
B1: the “aPTT in rhesus monkey plasma: concentration that prolongs clotting time by 50% (1.5x)” value was found to be 25 nM.
Turning to B2, the “aPTT in rhesus monkey plasma: concentration that prolongs clotting time by 50% (1.5x)” value was determined as 17.4 nM.
Same read-out and setting: the result for B3 reads 19.4 nM.

The next test deals with cynomolgus monkey FXIa (cynomolgus monkey, UniProt A0A2K5VVW4 19-624). The test can be described thus: SPR (ProteOn XPR36), antibody captured by anti-human IgG, FXIa as analyte; mean ± SD, N=3.
Molecule B1 registered a Kd of 2 pM.
B2: the dissociation constant Kd came out at 3.3 pM.
Regarding B3, binding was put at a Kd of 3.7 pM.

Another test addresses human FXIa (human, UniProt P03951 19-625). The description is as above.
For the molecule B1, the Kd is 9 pM.
For the molecule B2, the Kd was found to be 1.1 pM.
As for B3, binding was characterised by a dissociation constant (Kd) of 1.3 pM.

Values taken from US20170226225A1 (Merck Sharp & Dohme, published 2017).
